The target of this test is T1, purified mouse VDAC protein (mouse, UniProt Q3U6K8 2-283).
T1 construct: Used as a 100 ng/ml solution over dot-blotted ligands; also called voltage-dependent anion channel
The test can be described thus: dot blot on nitrocellulose; bound VDAC detected with anti-VDAC antibody and ECL.

B1: human microplasmin (enzyme, UniProt P00747 550-810, looked up)
chain: KLYDYCDVPQCAAPSFDCGKPQVEPKKCPGRVVGGCVAHPHSWPWQVSLRTRFGMHFCGGTLISPEWVLTAAHCLEKSPRPSSYKVILGAHQEVNLEPHVQEIEVSRLFLEPTRKDIALLKLSSPAVITDKVIPACLPSPNYVVADRTECFITGWGETQGTFGAGLLKEAQLPVIENKVCNRYEFLNGRVQSTELCAGHLAGGTDSCQGDSGGPLVCFEKDKYILQGVTSWGLGCARPNKPGVYVRVSRFVTWIEGVMRNN
notes: 50 ng dot blotted onto a nitrocellulose membrane; also called microplasmin having no Kringle domain
For the molecule B1, the binding result is listed as “no binding”.

The values are drawn from patent EP1615032A1 (Kido, Hiroshi, dated 2006).
